Laboratory results as given in patent publication US20090158448A1 (NATIONAL UNIVERSITY CORPORATION TOKYO MEDICAL AND DENTAL …, published 2009).

T1: mutant MuSK (NA), myc tag (mouse, UniProt Q61006 22-868, limits assumed)
T1 construct: Mutation in the NPXY PTB domain target motif; also called NA mutant; not shown: myc tag
T1 sequence: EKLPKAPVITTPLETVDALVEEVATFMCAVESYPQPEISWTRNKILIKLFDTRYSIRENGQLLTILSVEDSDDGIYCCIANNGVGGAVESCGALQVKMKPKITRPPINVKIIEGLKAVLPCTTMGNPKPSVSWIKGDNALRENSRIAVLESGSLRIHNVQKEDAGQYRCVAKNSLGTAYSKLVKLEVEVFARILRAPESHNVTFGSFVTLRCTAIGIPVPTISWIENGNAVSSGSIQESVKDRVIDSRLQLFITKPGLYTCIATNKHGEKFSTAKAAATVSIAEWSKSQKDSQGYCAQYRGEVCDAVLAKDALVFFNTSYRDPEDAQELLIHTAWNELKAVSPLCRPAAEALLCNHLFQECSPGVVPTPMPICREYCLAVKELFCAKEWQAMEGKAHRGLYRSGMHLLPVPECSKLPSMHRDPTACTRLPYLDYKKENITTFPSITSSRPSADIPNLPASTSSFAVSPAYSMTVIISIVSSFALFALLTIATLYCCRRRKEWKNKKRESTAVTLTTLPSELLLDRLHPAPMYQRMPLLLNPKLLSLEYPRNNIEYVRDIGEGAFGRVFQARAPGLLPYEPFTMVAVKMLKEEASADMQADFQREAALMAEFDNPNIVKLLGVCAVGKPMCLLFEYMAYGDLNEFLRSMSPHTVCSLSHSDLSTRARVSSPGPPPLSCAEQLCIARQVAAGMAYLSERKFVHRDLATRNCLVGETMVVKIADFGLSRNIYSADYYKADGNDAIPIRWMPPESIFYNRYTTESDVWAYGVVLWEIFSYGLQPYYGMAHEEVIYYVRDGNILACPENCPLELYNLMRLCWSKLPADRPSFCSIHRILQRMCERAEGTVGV

T2: mutant MuSK (YF), myc tag (mouse, UniProt Q61006 22-868, limits assumed)
T2 construct: Mutation in the NPXY PTB domain target motif; also called YF mutant; not shown: myc tag
T2 sequence: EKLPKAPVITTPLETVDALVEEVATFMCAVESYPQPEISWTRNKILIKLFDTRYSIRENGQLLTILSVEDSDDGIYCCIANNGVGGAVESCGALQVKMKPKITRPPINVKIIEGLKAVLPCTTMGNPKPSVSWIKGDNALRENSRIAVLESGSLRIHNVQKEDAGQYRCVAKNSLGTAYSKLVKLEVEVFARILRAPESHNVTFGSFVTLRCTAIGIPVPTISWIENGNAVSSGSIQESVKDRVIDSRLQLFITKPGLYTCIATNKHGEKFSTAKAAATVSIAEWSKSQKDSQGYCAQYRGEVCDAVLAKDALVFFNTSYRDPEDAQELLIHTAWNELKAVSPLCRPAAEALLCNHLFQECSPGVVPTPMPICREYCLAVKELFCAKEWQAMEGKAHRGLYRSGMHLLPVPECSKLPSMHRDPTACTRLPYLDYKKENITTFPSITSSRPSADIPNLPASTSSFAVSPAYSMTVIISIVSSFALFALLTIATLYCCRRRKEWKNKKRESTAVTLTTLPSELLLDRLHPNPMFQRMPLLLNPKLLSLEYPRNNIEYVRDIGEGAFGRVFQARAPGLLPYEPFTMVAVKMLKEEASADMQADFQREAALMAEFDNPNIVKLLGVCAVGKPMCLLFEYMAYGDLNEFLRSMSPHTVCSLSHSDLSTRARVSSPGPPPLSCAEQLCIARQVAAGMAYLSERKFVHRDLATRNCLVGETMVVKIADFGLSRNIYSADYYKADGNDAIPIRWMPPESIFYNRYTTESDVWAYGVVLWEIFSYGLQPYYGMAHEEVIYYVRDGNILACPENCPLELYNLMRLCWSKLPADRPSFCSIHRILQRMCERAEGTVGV

T3: wild type (WT) mouse MuSK fused to myc tag (mouse, UniProt Q61006 22-868, limits assumed)
T3 construct: also called wild type MuSK (WT); muscle-specific tyrosine kinase; not shown: myc tag
T3 sequence: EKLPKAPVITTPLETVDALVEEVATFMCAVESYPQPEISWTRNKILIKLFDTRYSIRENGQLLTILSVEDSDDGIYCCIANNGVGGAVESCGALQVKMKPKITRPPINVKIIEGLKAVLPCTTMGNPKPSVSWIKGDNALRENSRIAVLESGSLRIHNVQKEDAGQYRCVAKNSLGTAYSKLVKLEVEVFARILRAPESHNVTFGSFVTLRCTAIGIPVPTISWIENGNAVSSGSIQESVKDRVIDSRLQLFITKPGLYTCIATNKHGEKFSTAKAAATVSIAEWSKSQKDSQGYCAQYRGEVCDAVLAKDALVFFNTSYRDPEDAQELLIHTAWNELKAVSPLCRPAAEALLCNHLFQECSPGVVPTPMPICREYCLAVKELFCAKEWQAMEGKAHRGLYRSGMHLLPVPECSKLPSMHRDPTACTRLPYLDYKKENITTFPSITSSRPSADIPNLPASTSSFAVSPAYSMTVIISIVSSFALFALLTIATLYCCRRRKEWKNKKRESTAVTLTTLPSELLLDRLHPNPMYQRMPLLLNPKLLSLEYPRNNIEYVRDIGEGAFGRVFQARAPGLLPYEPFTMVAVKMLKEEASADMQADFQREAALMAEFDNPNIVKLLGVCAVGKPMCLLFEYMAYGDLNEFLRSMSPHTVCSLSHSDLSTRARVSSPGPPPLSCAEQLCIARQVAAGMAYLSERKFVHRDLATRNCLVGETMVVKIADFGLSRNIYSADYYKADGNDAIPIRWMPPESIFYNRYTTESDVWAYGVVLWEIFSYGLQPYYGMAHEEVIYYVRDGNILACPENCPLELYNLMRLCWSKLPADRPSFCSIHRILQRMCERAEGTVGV

B1: wild type human Dok-7 protein (other)
chain: MTEAALVEGQVKLRDGKKWKSRWLVLRKPSPVADCLLMLVYKDKSERIKGLRERSSLTLEDICGLEPGLPYEGLVHTLAIVCLSQAIMLGFDSHEAMCAWDARIRYALGEVHRFHVTVAPGTKLESGPATLHLCNDVLVLARDIPPAVTGQWKLSDLRRYGAVPSGFIFEGGTRCGYWAGVFFLSSAEGEQISFLFDCIVRGISPTKGPFGLRPVLPDPSPPGPSTVEERVAQEALETLQLEKRLSLLSHAGRPGSGGDDRSLSSSSSEASHLDVSASSRLTAWPEQSSSSASTSQEGPRPAAAQAAGEAMVGASRPPPKPLRPRQLQEVGRQSSSDSGIATGSHSSYSSSLSSYAGSSLDVWRATDELGSLLSLPAAGAPEPSLCTCLPGTVEYQVPTSLRAHYDTPRSLCLAPRDHSPPSQGSPGNSAARDSGGQTSAGCPSGWLGTRRRGLVMEAPQGSEATLPGPAPGEPWEAGGPHAGPPPAFFSACPVCGGLKVNPPP
notes: also called WT; polypeptide of the present invention
B2: mutant Dok-7 (RA) (other)
chain: MTEAALVEGQVKLRDGKKWKSRWLVLRKPSPVADCLLMLVYKDKSERIKGLRERSSLTLEDICGLEPGLPYEGLVHTLAIVCLSQAIMLGFDSHEAMCAWDARIRYALGEVHRFHVTVAPGTKLESGPATLHLCNDVLVLARDIPPAVTGQWKLSDLAAYGAVPSGFIFEGGTACGYWAGVFFLSSAEGEQISFLFDCIVRGISPTKGPFGLRPVLPDPSPPGPSTVEERVAQEALETLQLEKRLSLLSHAGRPGSGGDDRSLSSSSSEASHLDVSASSRLTAWPEQSSSSASTSQEGPRPAAAQAAGEAMVGASRPPPKPLRPRQLQEVGRQSSSDSGIATGSHSSYSSSLSSYAGSSLDVWRATDELGSLLSLPAAGAPEPSLCTCLPGTVEYQVPTSLRAHYDTPRSLCLAPRDHSPPSQGSPGNSAARDSGGQTSAGCPSGWLGTRRRGLVMEAPQGSEATLPGPAPGEPWEAGGPHAGPPPAFFSACPVCGGLKVNPPP
notes: also called RA of Dok-7

What was measured:
Test in all cases: co-immunoprecipitation (anti-myc) and western, 293T cells
[1] = target: T1, mutant MuSK (NA), myc tag
Procedure: (§1) Immunoprecipitation of whole cell lysate (WCL) obtained from each transformed cell strain was carried out using an anti-myc tag antibody, and thus an immunoprecipitate (IP: αmyc) was obtained. Then, a western blot analysis was performed for the whole cell lysate and immunoprecipitate. The antibodies used were the same as the antibodies described above.
(§2) Then, immunoprecipitation of whole cell lysate (WCL) obtained from each transformed cell strain was carried out, and a western analysis was performed on the resulting immunoprecipitate (IP: αmyc). The antibodies used were the same as the antibodies described above.

[2] = target: T2, mutant MuSK (YF), myc tag
Procedure: as §1, §2

[3] = target: T3, wild type (WT) mouse MuSK fused to myc …
Procedure: as §1, §2

Binder	binding result [1]	binding result [2]	binding result [3]
B1	no binding	no binding	–
B2	–	–	no binding
